Paper PMC3591319 (PLoS Pathogens, 2013)

Columns and labels:
[1] = target: gp140-92UG037 (recombinant Env gp140 of HIV-1 strain 92UG037) (HIV-1 clade A (92UG037)); test: SPR
[2] = target: gp41INT (soluble form of the fusion intermediate conformation of gp41) (not stated | HIV-1); test: SPR; Biacore 3000; gp41INT or gp41 528-683 immobilised to 1000 RU on CM-5; VHH injected 1 to 200 nM for 150 s; 10 mM HEPES, 150 mM NaCl, pH 7.4, 50 uM EDTA, 0.005% P-20; 1:1 Langmuir fit, or separate association and dissociation fits for 2H10 and 2H10-W100A on gp41INT
[3] = target: gp140-92UG037 (recombinant Env gp140 of HIV-1 strain 92UG037) (HIV-1 clade A (92UG037))
[4] = target: gp140-92UG037 (recombinant Env gp140 of HIV-1 strain 92UG037) (HIV-1 clade A (92UG037)); test: SPR; Biacore T100; gp140-92UG037 immobilised to 1500 RU on CM-5; VHH injected at 6.25, 25, 100 and 400 nM for 60 s; 10 mM HEPES, 150 mM NaCl, pH 7.4, 0.005% Tween-20; two-state reaction fit (2H10), heterogeneous ligand and two-state fits (bi-2H10)
[5] = target: gp41 528-683 (potential late fusion intermediate conformation of gp41) (HIV-1) (UniProt P04578); test: SPR; Biacore 3000; […]; 10 mM HEPES, 150 mM NaCl, […]; 1:1 Langmuir fit, […]
[6] = target: gp140-92UG037 (recombinant Env gp140 of HIV-1 strain 92UG037) (HIV-1 clade A (92UG037)); test: SPR; Biacore T100; gp140-92UG037 immobilised on CM-5; single concentration injections of 100 nM VHH for 60 s; two-state reaction fit
[7] = target: T1, linear gp41 MPER peptide 655KNEQELLELDKWASL669 (HIV-1 clade B (HXB2 sequence)); test: ITC; 25 C; 10 uM 2H10 in the cell, about 100 uM peptide in the syringe; 20 mM HEPES pH 7.4, 100 mM NaCl; single binding site model; details: both partners purified
T1 chain: KNEQELLELDKWASL

[8] = target: T2, gp41CHRTM (HIV-1 gp41 C-terminal heptad repeat, MPER and transmembrane regions) (HIV-1 clade B (HXB2), UniProt P04578); test: ELISA; details: both partners purified
T2 construct: also called gp41 proteoliposomes; gp41CHRTM proteoliposomes

For 2H10-S29F (VHH), the Kd [1] was 5.5 nM.

Molecule “bi-2H10 with 15GS linker (bivalent 2H10) (VHH)” has a Kd [2] of 2.5 nM, an IC50 of neutralisation of HIV-1 92UG037.A9 (molecular clone) in TZM-bl cells [3] of 2.4 µg/mL and an IC50 of neutralisation of pseudovirus 92UG0378 in TZM-bl cells [3] of 4.66 µg/mL. For the same molecule, the Kd [4] was 0.15 nM and the Kd [5] was 1.1 nM.

For “2H10 (llama anti-gp41 MPER VHH, monovalent, myc/His-tagged)”, the Kd [6] was 8 nM, the Kd [2] was 29 nM and the IC50 of neutralisation of HIV-1 92UG037.A9 (molecular clone) in TZM-bl cells [3] was > 50 µg/mL. For the same molecule, the IC50 of neutralisation of pseudovirus 92UG0378 in TZM-bl cells [3] was > 50 µg/mL and the Kd [4] was 4 nM.

“bi-2H10 with 17GS linker (bivalent 2H10) (VHH)” was tested, and the IC50 of neutralisation of HIV-1 92UG037.A9 (molecular clone) in TZM-bl cells [3] was 28 µg/mL.

Molecule 2H10-R71S (VHH) has a Kd [1] of 18.7 nM.

Molecule 2H10-W100A (VHH) has a Kd [1] of 10.1 nM.

B1: 2H10 (VHH without 6his-tag or myc tag) (VHH)
VHH: EVQLVESGGGLVQPGGSLRLSCAASGSISSVDVMSWYRQAPGKQRELVAFITDRGRTNYKVSVKGRFTISRDNSKNMVYLQMNSLKPEDTADYLCRAESRTSWSSPSPLDVWGRGTQVTVSS
In the case of B1, the Kd [7] is reported as 35 nM.

B2: 2H10 (llama anti-gp41 MPER VHH, monovalent, myc/His-tagged) (VHH)
VHH: EVQLVESGGGLVQPGGSLRLSCAASGSISSVDVMSWYRQAPGKQRELVAFITDRGRTNYKVSVKGRFTISRDNSKNMVYLQMNSLKPEDTADYLCRAESRTSWSSPSPLDVWGRGTQVTVSS
notes: also called 2H10 monohead; VHH 2H10
B2: binds [8].
